Data from FireProtDB (doi:10.1074/jbc.273.1.167).
Where “and” joins values, the source holds several entries; their conditions need not be identical. Identical values can stand only once.

Conditions: Bos taurus, pH 7, Thermal, DSC, phosphate 10 mM, transition: 3, reversible: no, whole UniProt chain shown

B1: Tubulin--tyrosine ligase wild type, P38584 (protein)
chain: MYTFVVRDENSSVYAEVSRLLLATGHWKRLRRDNPRFNLMLGERNRLPFGRLGHEPGLMQLVNYYRGADKLCRKASLVKLIKTSPELAESCTWFPESYVIYPTNLKTPVAPAQDGIHPPLHSSRTDEREFFLASYNRKKEEGEGNVWIAKSSAGAKGEGILISSDATELLDFIDNQGQVHVIQKYLERPLLLEPGHRKFDIRSWVLVDHQFNIYLYREGVLRTASEPYHMDNFQDKTCHLTNHCIQKEYSKNYGKYEEGNEMFFEAFNRYLTSALNITLESSILLQIKHIIRSCLMSVEPAISTKHLPYQSFQLFGFDFMVDEELKVWLIEVNGAPACAQKLYAELCQGIVDIAIASVFPPPDAEQQPPQPATFIKL
Tm (Mg++ 30 nM): 51.1 °C
unfolding enthalpy (calorimetric) (Mg++ 30 nM): 160 kcal/mol
unfolding enthalpy (calorimetric) (Mg++ 35 nM): 38 kcal/mol and 84 kcal/mol
unfolding enthalpy (calorimetric) (Mg++ 40 nM): 31 kcal/mol and 84 kcal/mol
Tm (Mg++ 182 nM): 49.9 °C
unfolding enthalpy (calorimetric) (Mg++ 182 nM): 158 kcal/mol
Tm (Mg++ 2.3 micro M): 54.6 °C
unfolding enthalpy (calorimetric) (Mg++ 2.3 micro M): 173 kcal/mol
Tm (Mg++ 4.5 micro M): 54.8 °C
unfolding enthalpy (calorimetric) (Mg++ 4.5 micro M): 173 kcal/mol
Tm (Mg++ 160 micro M): 55.8 °C
unfolding enthalpy (calorimetric) (Mg++ 160 micro M): 150 kcal/mol
Tm (Mg++ 280 micro M): 55.6 °C and 54.2 °C
unfolding enthalpy (calorimetric) (Mg++ 280 micro M): 186 kcal/mol and 200 kcal/mol
